Experiments:
[1] = biological target: T1, SARS-S1 (SARS-CoV, UniProt P59594 14-667); experiment: ELISA
T1 construct: domain: S1

[2] = biological target: T2, MERS-S1 (MERS-CoV, UniProt K9N5Q8 18-725); experiment: ELISA
T2 construct: domain: S1

[3] = biological target: S1RBD-his (SARS-CoV-2 S1蛋白RBD与His的融合蛋白) (SARS-CoV-2); experiment: BLI (Octet QKe), antibody captured on AHC sensor, S1RBD-His in solution, 1:1 fit
[4] = biological target: S1RBD-mFc (SARS-CoV-2 S1蛋白RBD与mFc的融合蛋白) (SARS-CoV-2)

Binder | binding result [1] | binding result [2] | Kd [3] [nM] | koff [3] [s⁻¹] | kon [3] [M⁻¹ s⁻¹] | IC50 [4] [nM]
重组抗体8B4 (antibody, V domains shown, also called 8B4-Biotin) VH: EVQLVQSGAEVKKPGSSVKVSCKASGGTFSSFSISWVRQAPGQGLEWMGRIIPVLGIANYAQEVQGRVTITADKSTSTAYMELSSLRSEDTAVYFCTTDRFVEPATGPFFDYWGQGTLVTVSS VL: EIVMTQSPATLSVSPGERATLSCRASQSVSSNLAWYQQKPGQAPRLLIYGASTRATGIPARFSGSGSGTEFTLTISSLQSEDFAVYYCQQYSNWLTFGGGTKVEIK | no binding | no binding | 7.7 | 0.00157 | 204000 | 23.1
重组抗体24G8 (antibody, V domains shown, also called 24G8-Biotin) VH: EVQLVESGGGLVKPGGSLRLSCAASGFTFSSYSMNWVRQAPGKGLEWVSSISSSSSFIYYADSVKGRFTISRDNAKNSLYLQMNSLRAEDTAVYYCAREVHVDTAMDAYFDYWGQGTLVTVSS VL: DIQMTQSPSSLSASVGDRVTITCRASQTISSYLNWYQQKPGKAPKLLIFAASSLQSGVPSRFSGSGSGTDFTLTISSLQPEDFATYYCQQSYSNPPLTFGGGTKVEIE | – | – | 1.08 | 0.000264 | 244000 | 11.4
